Data on five molecules can be found in US20080193465A1 (US Dept. of Health and Human Services, published 2008).

For experiment [1], the target named is T1, long IGF-II (IGF-II precursor) (human, UniProt P01344 25-180).
T1 construct: Expressed in E. coli as His-tagged long IGF-II; also called long His6-IGF-II; His-tagged long IGF-II; not shown: His6 tag from the E. coli expression vector (pRSET)
Description: ELISA, Fab on immobilized long IGF-II.

In experiment [2] the target is T2, IGF-I (UniProt P05019 49-118).
T2 construct: also called insulin-like growth factor I
Description: ELISA, antigens immobilized on the plate, single Fab concentration not shown, OD405.

The target of experiment [3] is T1, long IGF-II (IGF-II precursor). The experiment is described as follows: ELISA, 50 ng long (precursor) IGF-II immobilized, OD405.
Description: (§1) Binding of the antibodies was measured by ELISA with 50 ng of either mature or precursor IGF-II immobilized on plates.
The target of experiment [4] is T3, mature IGF-II (human, UniProt P01344 25-91).
T3 construct: also called mature form of IGF-II
Description: ELISA, 50 ng mature IGF-II immobilized, OD405.
Description: as §1

Experiment [5] deals with T1, long IGF-II (IGF-II precursor). Description: Biacore SPR, Fab on long IGF-II.
Description: (§2) The binding of the Fabs was measured by using ELISA and Biacore surface plasmon resonance technology. […] Interactions between various Fabs and IGF-II were analyzed by surface plasmon resonance technology using a BIACORE 1000 instrument (Biacore, Pharmacia, Piscataway, N.J.). IGF-II was covalently immobilized onto a sensor chip (CM5) using carbodiimide coupling chemistry. A control reference surface was prepared for nonspecific binding and refractive index changes. For analysis of the kinetics of interactions, varying concentrations of Fabs were injected at flow rate of 30 μl/min using running buffer containing 150 mM NaCl, 3 mM EDTA, and 0.005% P-20 (pH 7.4). The association and dissociation phase data were fitted simultaneously to a 1:1 Langumir global model by using the nonlinear data analysis program BIAevaluation 3.2. All the experiments were performed at 25° C.
(§3) Biacore analysis was used to examine their binding affinities in more detail.
Experiment [6] has the same target. The experiment is described as follows: Biacore 1000 SPR, IGF-II immobilized on CM5 chip, Fab injected, 1:1 Langmuir fit, 25° C.
Description: as §2, §3
The target in experiment [7] is T4, BSA (Bos taurus, UniProt P02769).
T4 construct: also called bovine serum albumin
The experiment is described as follows: ELISA, antigens immobilized on the plate, single Fab concentration not shown, OD405.

Experiment [8] deals with T1, long IGF-II (IGF-II precursor). Description: ELISA, long IGF-II immobilized at 50 ng/well, bound Fab detected with anti-FLAG-HRP, OD405.

T4 sequence (P02769 25-607 limits assumed): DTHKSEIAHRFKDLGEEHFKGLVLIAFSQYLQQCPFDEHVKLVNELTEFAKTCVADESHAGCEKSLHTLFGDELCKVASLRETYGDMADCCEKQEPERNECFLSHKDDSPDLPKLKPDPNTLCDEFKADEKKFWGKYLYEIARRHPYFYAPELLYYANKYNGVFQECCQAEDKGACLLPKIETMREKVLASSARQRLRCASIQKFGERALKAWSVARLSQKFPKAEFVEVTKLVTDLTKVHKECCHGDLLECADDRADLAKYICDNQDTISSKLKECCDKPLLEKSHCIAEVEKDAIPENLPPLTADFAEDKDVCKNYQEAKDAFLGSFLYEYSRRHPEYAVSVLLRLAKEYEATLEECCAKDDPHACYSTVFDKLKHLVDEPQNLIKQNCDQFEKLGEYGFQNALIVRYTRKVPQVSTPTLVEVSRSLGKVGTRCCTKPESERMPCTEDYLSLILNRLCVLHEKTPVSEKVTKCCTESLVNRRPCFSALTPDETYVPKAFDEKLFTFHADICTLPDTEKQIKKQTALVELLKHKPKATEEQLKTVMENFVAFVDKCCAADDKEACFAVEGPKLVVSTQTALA

B1: Fab m616 (Fab, V domains shown)
VH: SQVQVLVKPSQTLSLTCAISGDSVSSNSAAWNWIRQSPSRGLEWLGRTYYRSKWYNDYAVSVKSRITINPDTSKNQFSLQLNSVTPEDTAVYYCAREKGIGRGITGTTIPYNWFDPWGQGTLVTVSS
VL: SSYEITQPPSVSVTPGQTARITCSGDALPKHFAYWYQQKPGQAPVLIIYKDTERPSGIPERFSGSNSGNTATLTISRVEAGDEADYYCQVWDSSSGWVFGGGTKLTVQG
notes: Soluble Fab from E. coli periplasm; also called clone M616
As for B1, the concentration giving a half-maximal response (EC50) in experiment [1] is ~4 nM. The binding result in experiment [2] is “no binding”.

B2: IgG1 m610 (antibody, V domains shown)
VH: QVQLVQSGAEVKKPGASVKVSCKASGYTFTSYYMHWVRQAPGQGLEWMGIINPSGGSTSYAQKFQGRVTMTRDTSTSTVYMELSRLRSDDTAVYYCARDVQWLAYGMDVWGQGTTVTVSS
VL: not shown
notes: Whole IgG made from the Fab in 293 Free Style cells; also called IgG m610; IgG M610; not shown: rest of the IgG1 heavy chain constant region supplied by vector pDR12
In the case of B2, the entries for the half-maximal effective concentration (EC50 (read off the curve)) in experiment [3] and in experiment [4] were ~0.4 nM and ~0.5 nM, respectively.

B3: Fab m610 (Fab, V domains shown)
VH: QVQLVQSGAEVKKPGASVKVSCKASGYTFTSYYMHWVRQAPGQGLEWMGIINPSGGSTSYAQKFQGRVTMTRDTSTSTVYMELSRLRSDDTAVYYCARDVQWLAYGMDVWGQGTTVTVSS
VL: not shown
notes: also called clone M610
For the molecule B3, in experiment [1], the concentration giving a half-maximal response (EC50) is ~4 nM. The binding result in experiment [2] is “no binding”. Moreover, in experiment [5], the Ka is 1.09e+09 M⁻¹, the Kd stood at 0.918 nM, the dissociation rate constant (koff) was determined as 0.000262 s⁻¹ and the on-rate constant (kon) is 286000 M⁻¹ s⁻¹. In experiment [6], the Kd was 0.9 nM, the koff turned out to be 0.00026 s⁻¹ and the kon was 290000 M⁻¹ s⁻¹.

B4: IgG1 m606 (antibody, V domains shown)
VH: QVQLVESGAEVKKPGASVKVSCKASGYTFTSYYMHWVRQAPGQGLEWMGIINPSGGSTSYAQKFQGRVTMTRDTSTSTVYMELSSLRSEDTAVYYCARDRSIAAMGWFDHWGQGTLVTVSS
VL: DIQMTQSPSSVSASVGDRVTITCRASQGISSWLVWYQQKPGKAPKLLIYAASRLQSGVPSRFSGSGSGTLFTLIINNLQPEDFATYYCQQSNSVPLTFGGGTKVEIKR
notes: Whole IgG made from the Fab in 293 Free Style cells; also called IgG m606; m606 IgG; not shown: rest of the IgG1 heavy chain constant region supplied by vector pDR12
With B4, the “EC50 (read off the curve)” value in experiment [4] is ~0.4 nM.

B5: Fab m606 (Fab, V domains shown)
VH: QVQLVESGAEVKKPGASVKVSCKASGYTFTSYYMHWVRQAPGQGLEWMGIINPSGGSTSYAQKFQGRVTMTRDTSTSTVYMELSSLRSEDTAVYYCARDRSIAAMGWFDHWGQGTLVTVSS
VL: DIQMTQSPSSVSASVGDRVTITCRASQGISSWLVWYQQKPGKAPKLLIYAASRLQSGVPSRFSGSGSGTLFTLIINNLQPEDFATYYCQQSNSVPLTFGGGTKVEIKR
notes: also called clone M606
Consider B5, for which, in experiment [1], the EC50 is ~4 nM. Besides, the binding result in experiment [2] was “no binding”. Also, the binding result in experiment [7] is “no binding”. For the same molecule, the “EC50 (read off the curve)” value in experiment [8] was ~6 nM. Besides, in experiment [5], the Ka was found to be 1.41e+09 M⁻¹; the affinity, expressed as Kd, was 0.711 nM; the kon is 351000 M⁻¹ s⁻¹. In addition, in experiment [6], binding was characterised by a dissociation constant (Kd) of 0.7 nM, the koff worked out at 0.00025 s⁻¹ and the on-rate (kon) was 350000 M⁻¹ s⁻¹.
